Results published in the DeepSol protein solubility set.

Test: soluble on expression in E. coli; label from the status in PepcDB or PDB records
With “MGNSLHQIKCCTSFIHCQNAAVDAPSIAKTLADYLYPAFFHQDLPAPLKISVTGCPNQCGGGVEADIGISGYFATVPRVDDAGLMAANIDFGHLISGCPVGAIRPRQVEGGTTVVINAERCIRCTSCIQVAPEGIKPGPERFVAIAVGGHGGNNRRGPEMAAVVFSRVPARPLDYAAICERVQRIIACWRDRGKRGERLAGFLERLEHHHHHH” the “soluble on expression in E. coli” value was “not soluble”. In the case of “MGNTAITRVQMEATKSVPVDHAKYMSGSGAPPPECPMHQKHGDAKSASAVPPHPKMQAASECPVQHDNSDVNPLNMMPPANQQPAADQPFPLPTDRQTSTIPKVTEDGSVQFWQYPSQQMFWNAMLRKGWRWKTEDVSQKDMGDIIRIHNANNEQAWQEVLKWEALHAKECGNPRLKSFGGKAKDFSPRARFRSWLGYELPFDRHDWIVDRCGKDVRYVIDYYDGGLVDKDYRFALLDVRPAMDSVDNVWDRMRVAYMRWKYELFEKFGSADGGKVTAGSDLEHHHHHH”, the “soluble on expression in E. coli” value is reported as “not soluble”. In the case of “MGQRKYGGPPPGWDSTPPERGCEIFIGKLPRDLFEDELIPLCEKIGKIYEMRLMMDFNGNNRGYAFVTFSNKQEAKNAIKQLNNYEIRTGRLLGVCASVDNCRLFVGGIPKTKKREEILSEMKKVTEGVVDVIVYPSAADKTKNRGFAFVEYESHRAAAMARRRLLPGRIQLWGHPIAVDWAEPEVEVDEDTMSSVKILYVRNLMLSTSEEMIEKEFNSIKPGAVERVKKIRDYAFVHFSNREDAVEAMKALNGKVLDGSPIEVTLAKPVDKDSYVRYTRGTGGRNTMLQGEYTYPLSHVYDTTTTYLGAPVFYTPQAYAAIPSLHFPATKGHLSNRALIRTPSVRGNTS”, the “soluble on expression in E. coli” value is reported as “soluble”. For “MGQRYKRMSSTDTNEYMSDNLAKAISNPLFPALDSMLRAGRHISTEDLDNHALLSDFELELSSFYQRYNTELVKAPEGFFYLRPRSTSLIGRSVLSELDMLVGKVLCFLYLSPERLAHEGIFTNQELYDELLALADEKKLMKLVTNRATGSDLDKEKLFEKVRTSLRRLRRLGMIINIGETGKFSISEAVFRFGADVRVGDDIREAQLRLIRDGEAVVHTKEPSQGSLLSEEDQEEQAQEEMTEEGEALEHHHHHH”, the “soluble on expression in E. coli” value was “soluble”. In the case of “MGRQGSLALLLSIILIGETIANEYDGLSSHQSHQSTVTSAPIHVSEQQTSRNRPYNQPQLQQKPSVLTQSYQVLPESRNYYQYPQYLPTHTGYSNIQTVGQPYQMYGSAPGSNVVSGGNSESYGYNQQAPVPTVAPAPVHFSERQRSYSAAPTPPSPFSETRERENNNVRAPGHHAPAQQGHRSPSPPPSPFMINPKPVLSYGAANPFLANLPPAQGVYGAPIDSSHRGYDGFSLSAPAPPSGSSASVDDTWEALEASLDANTRRRHRIF”, the “soluble on expression in E. coli” value is reported as “not soluble”. For “MGSDKIHHHHHHAAQARLDKARAMYENNEFFGAKNEIDSIRALYPKEVKVLKQGLTLMRQVEVKEAERNIAFCDSLLPIKLEEVEGLKKGFAFEKDSVYEEIGNYIWKQQTIERNVQRCYVRCGVNEEGEMYLASVYYGGRPIEHTGIKLSLKDGQFAETASIPYDGGLNYRFKDMGSTTEVVTYKGEHCVDAVKFIYDNEKERIKVEYTGGKPYIIYMADADKKAIVNTFNLATVLSDIKSMNTLKEKSEKKIAYLKNKLEE”, the “soluble on expression in E. coli” value was “not soluble”. With “MGSDKIHHHHHHAAVGEKLGWPQQKISKIESGEQKRIPAAELDALLEVYGVTDPQIRESLHECARLAKERGWWTRYKDAFPSGLPDFESEASVIRSYECQVIPGILQTPDYADAIFRAYKLREDKEIDRLVKARMERQNILNRVDPPHFMTIIDEAALHRLVGSVEVMRTQLRHLTHMASRHNIDIYVLPFKAGAHAATTGSFMIMDFPDPMDNSIVYVDTPTSILYIEDEEEVREFNVMFSRTQSAALSPTLSMDLVKKVIKSLEE” the “soluble on expression in E. coli” value was “not soluble”. In the case of “MGSDKIHHHHHHACNTSPREPKAMEANDGSVTTVESNGNKLTVCDLSAVKDTIEVPLSEFVEDCRIVRFETSEEAYFKAWFINATDKHIGIRQGNQDVFKLFDRDGKFLYNVGSVGSGPGEYDTTLYDECIDEKNGHIFFTPFVGKRIMMYDINGQWIKDIPLPMQINKAKIWVNEDGSLSVVHMPFEEGEPLAFRVDTEGNILNQIPATAATKVMNFDGEVFSYRNCGDFDFFHTGIDTLFTYDPAGNKLLPKFTMTFPNMNEKPIHLYYRLPHHFIVTYWGNKGEGGGDVLVDTEKNASSYFRLVNDFYGNLPIPAPGHSFYRGYFIQSLEPGQLIEKIEKQIASGKCSGQDEQKLKELAATLTENDNNVLFIGKVKK”, the “soluble on expression in E. coli” value is reported as “not soluble”.
